In US20210388087A1 (Chugai, published 2021):

B1: H183/L072 VH S30D (antibody, name in Kabat numbering, V domains shown)
VH: QVQLVESGGGLVQPGRSLRLSCAASGFTFDNAWMHWVRQAPGKGLEWVAQIKDKGNAYAAYYAPSVKGRFTISRDDSKNSIYLQMNSLKTEDTAVYYCHYVHYASASTVLPAFGVDAWGQGTTVTVSS
VL: DIVMTQSPLSLPVTPGEPASISCQASQELVHMNRNTYLHWYQQKPGQAPRLLIYKVSNRFPGVPDRFSGSGSGTDFTLKISRVEAEDVGVYYCAQGTSVPFTFGQGTKLEIK
B2: H183/L072 VH S30P (antibody, name in Kabat numbering, V domains shown)
VH: QVQLVESGGGLVQPGRSLRLSCAASGFTFPNAWMHWVRQAPGKGLEWVAQIKDKGNAYAAYYAPSVKGRFTISRDDSKNSIYLQMNSLKTEDTAVYYCHYVHYASASTVLPAFGVDAWGQGTTVTVSS
VL: DIVMTQSPLSLPVTPGEPASISCQASQELVHMNRNTYLHWYQQKPGQAPRLLIYKVSNRFPGVPDRFSGSGSGTDFTLKISRVEAEDVGVYYCAQGTSVPFTFGQGTKLEIK
B3: H183/L072 VH S62L (antibody, name in Kabat numbering, V domains shown)
VH: QVQLVESGGGLVQPGRSLRLSCAASGFTFSNAWMHWVRQAPGKGLEWVAQIKDKGNAYAAYYAPLVKGRFTISRDDSKNSIYLQMNSLKTEDTAVYYCHYVHYASASTVLPAFGVDAWGQGTTVTVSS
VL: DIVMTQSPLSLPVTPGEPASISCQASQELVHMNRNTYLHWYQQKPGQAPRLLIYKVSNRFPGVPDRFSGSGSGTDFTLKISRVEAEDVGVYYCAQGTSVPFTFGQGTKLEIK
B4: H183/L072 VH S30K (antibody, name in Kabat numbering, V domains shown)
VH: QVQLVESGGGLVQPGRSLRLSCAASGFTFKNAWMHWVRQAPGKGLEWVAQIKDKGNAYAAYYAPSVKGRFTISRDDSKNSIYLQMNSLKTEDTAVYYCHYVHYASASTVLPAFGVDAWGQGTTVTVSS
VL: DIVMTQSPLSLPVTPGEPASISCQASQELVHMNRNTYLHWYQQKPGQAPRLLIYKVSNRFPGVPDRFSGSGSGTDFTLKISRVEAEDVGVYYCAQGTSVPFTFGQGTKLEIK
B5: H183/L072 VH S62A (antibody, name in Kabat numbering, V domains shown)
VH: QVQLVESGGGLVQPGRSLRLSCAASGFTFSNAWMHWVRQAPGKGLEWVAQIKDKGNAYAAYYAPAVKGRFTISRDDSKNSIYLQMNSLKTEDTAVYYCHYVHYASASTVLPAFGVDAWGQGTTVTVSS
VL: DIVMTQSPLSLPVTPGEPASISCQASQELVHMNRNTYLHWYQQKPGQAPRLLIYKVSNRFPGVPDRFSGSGSGTDFTLKISRVEAEDVGVYYCAQGTSVPFTFGQGTKLEIK
B6: H183/L072 VH S62I (antibody, name in Kabat numbering, V domains shown)
VH: QVQLVESGGGLVQPGRSLRLSCAASGFTFSNAWMHWVRQAPGKGLEWVAQIKDKGNAYAAYYAPIVKGRFTISRDDSKNSIYLQMNSLKTEDTAVYYCHYVHYASASTVLPAFGVDAWGQGTTVTVSS
VL: DIVMTQSPLSLPVTPGEPASISCQASQELVHMNRNTYLHWYQQKPGQAPRLLIYKVSNRFPGVPDRFSGSGSGTDFTLKISRVEAEDVGVYYCAQGTSVPFTFGQGTKLEIK
B7: H183/L072 VH S30W (antibody, name in Kabat numbering, V domains shown)
VH: QVQLVESGGGLVQPGRSLRLSCAASGFTFWNAWMHWVRQAPGKGLEWVAQIKDKGNAYAAYYAPSVKGRFTISRDDSKNSIYLQMNSLKTEDTAVYYCHYVHYASASTVLPAFGVDAWGQGTTVTVSS
VL: DIVMTQSPLSLPVTPGEPASISCQASQELVHMNRNTYLHWYQQKPGQAPRLLIYKVSNRFPGVPDRFSGSGSGTDFTLKISRVEAEDVGVYYCAQGTSVPFTFGQGTKLEIK
B8: H183/L072 VH S30Y (antibody, name in Kabat numbering, V domains shown)
VH: QVQLVESGGGLVQPGRSLRLSCAASGFTFYNAWMHWVRQAPGKGLEWVAQIKDKGNAYAAYYAPSVKGRFTISRDDSKNSIYLQMNSLKTEDTAVYYCHYVHYASASTVLPAFGVDAWGQGTTVTVSS
VL: DIVMTQSPLSLPVTPGEPASISCQASQELVHMNRNTYLHWYQQKPGQAPRLLIYKVSNRFPGVPDRFSGSGSGTDFTLKISRVEAEDVGVYYCAQGTSVPFTFGQGTKLEIK
B9: H183/L072 VH S30N (antibody, name in Kabat numbering, V domains shown)
VH: QVQLVESGGGLVQPGRSLRLSCAASGFTFNNAWMHWVRQAPGKGLEWVAQIKDKGNAYAAYYAPSVKGRFTISRDDSKNSIYLQMNSLKTEDTAVYYCHYVHYASASTVLPAFGVDAWGQGTTVTVSS
VL: DIVMTQSPLSLPVTPGEPASISCQASQELVHMNRNTYLHWYQQKPGQAPRLLIYKVSNRFPGVPDRFSGSGSGTDFTLKISRVEAEDVGVYYCAQGTSVPFTFGQGTKLEIK
B10: H183/L072 VH S30Q (antibody, name in Kabat numbering, V domains shown)
VH: QVQLVESGGGLVQPGRSLRLSCAASGFTFQNAWMHWVRQAPGKGLEWVAQIKDKGNAYAAYYAPSVKGRFTISRDDSKNSIYLQMNSLKTEDTAVYYCHYVHYASASTVLPAFGVDAWGQGTTVTVSS
VL: DIVMTQSPLSLPVTPGEPASISCQASQELVHMNRNTYLHWYQQKPGQAPRLLIYKVSNRFPGVPDRFSGSGSGTDFTLKISRVEAEDVGVYYCAQGTSVPFTFGQGTKLEIK
B11: H183/L072 VH S30V (antibody, name in Kabat numbering, V domains shown)
VH: QVQLVESGGGLVQPGRSLRLSCAASGFTFVNAWMHWVRQAPGKGLEWVAQIKDKGNAYAAYYAPSVKGRFTISRDDSKNSIYLQMNSLKTEDTAVYYCHYVHYASASTVLPAFGVDAWGQGTTVTVSS
VL: DIVMTQSPLSLPVTPGEPASISCQASQELVHMNRNTYLHWYQQKPGQAPRLLIYKVSNRFPGVPDRFSGSGSGTDFTLKISRVEAEDVGVYYCAQGTSVPFTFGQGTKLEIK
B12: H183/L072 VH S30I (antibody, name in Kabat numbering, V domains shown)
VH: QVQLVESGGGLVQPGRSLRLSCAASGFTFINAWMHWVRQAPGKGLEWVAQIKDKGNAYAAYYAPSVKGRFTISRDDSKNSIYLQMNSLKTEDTAVYYCHYVHYASASTVLPAFGVDAWGQGTTVTVSS
VL: DIVMTQSPLSLPVTPGEPASISCQASQELVHMNRNTYLHWYQQKPGQAPRLLIYKVSNRFPGVPDRFSGSGSGTDFTLKISRVEAEDVGVYYCAQGTSVPFTFGQGTKLEIK
B13: H183/L072 VH S30F (antibody, name in Kabat numbering, V domains shown)
VH: QVQLVESGGGLVQPGRSLRLSCAASGFTFFNAWMHWVRQAPGKGLEWVAQIKDKGNAYAAYYAPSVKGRFTISRDDSKNSIYLQMNSLKTEDTAVYYCHYVHYASASTVLPAFGVDAWGQGTTVTVSS
VL: DIVMTQSPLSLPVTPGEPASISCQASQELVHMNRNTYLHWYQQKPGQAPRLLIYKVSNRFPGVPDRFSGSGSGTDFTLKISRVEAEDVGVYYCAQGTSVPFTFGQGTKLEIK
B14: H183/L072 VH S30L (antibody, name in Kabat numbering, V domains shown)
VH: QVQLVESGGGLVQPGRSLRLSCAASGFTFLNAWMHWVRQAPGKGLEWVAQIKDKGNAYAAYYAPSVKGRFTISRDDSKNSIYLQMNSLKTEDTAVYYCHYVHYASASTVLPAFGVDAWGQGTTVTVSS
VL: DIVMTQSPLSLPVTPGEPASISCQASQELVHMNRNTYLHWYQQKPGQAPRLLIYKVSNRFPGVPDRFSGSGSGTDFTLKISRVEAEDVGVYYCAQGTSVPFTFGQGTKLEIK
B15: H183/L072 VH S30G (antibody, name in Kabat numbering, V domains shown)
VH: QVQLVESGGGLVQPGRSLRLSCAASGFTFGNAWMHWVRQAPGKGLEWVAQIKDKGNAYAAYYAPSVKGRFTISRDDSKNSIYLQMNSLKTEDTAVYYCHYVHYASASTVLPAFGVDAWGQGTTVTVSS
VL: DIVMTQSPLSLPVTPGEPASISCQASQELVHMNRNTYLHWYQQKPGQAPRLLIYKVSNRFPGVPDRFSGSGSGTDFTLKISRVEAEDVGVYYCAQGTSVPFTFGQGTKLEIK
B16: H183/L072 VH S30T (antibody, name in Kabat numbering, V domains shown)
VH: QVQLVESGGGLVQPGRSLRLSCAASGFTFTNAWMHWVRQAPGKGLEWVAQIKDKGNAYAAYYAPSVKGRFTISRDDSKNSIYLQMNSLKTEDTAVYYCHYVHYASASTVLPAFGVDAWGQGTTVTVSS
VL: DIVMTQSPLSLPVTPGEPASISCQASQELVHMNRNTYLHWYQQKPGQAPRLLIYKVSNRFPGVPDRFSGSGSGTDFTLKISRVEAEDVGVYYCAQGTSVPFTFGQGTKLEIK
B17: H183/L072 VH S30M (antibody, name in Kabat numbering, V domains shown)
VH: QVQLVESGGGLVQPGRSLRLSCAASGFTFMNAWMHWVRQAPGKGLEWVAQIKDKGNAYAAYYAPSVKGRFTISRDDSKNSIYLQMNSLKTEDTAVYYCHYVHYASASTVLPAFGVDAWGQGTTVTVSS
VL: DIVMTQSPLSLPVTPGEPASISCQASQELVHMNRNTYLHWYQQKPGQAPRLLIYKVSNRFPGVPDRFSGSGSGTDFTLKISRVEAEDVGVYYCAQGTSVPFTFGQGTKLEIK
B18: H183/L072 VH S30E (antibody, name in Kabat numbering, V domains shown)
VH: QVQLVESGGGLVQPGRSLRLSCAASGFTFENAWMHWVRQAPGKGLEWVAQIKDKGNAYAAYYAPSVKGRFTISRDDSKNSIYLQMNSLKTEDTAVYYCHYVHYASASTVLPAFGVDAWGQGTTVTVSS
VL: DIVMTQSPLSLPVTPGEPASISCQASQELVHMNRNTYLHWYQQKPGQAPRLLIYKVSNRFPGVPDRFSGSGSGTDFTLKISRVEAEDVGVYYCAQGTSVPFTFGQGTKLEIK
B19: H183/L072 VH S30R (antibody, name in Kabat numbering, V domains shown)
VH: QVQLVESGGGLVQPGRSLRLSCAASGFTFRNAWMHWVRQAPGKGLEWVAQIKDKGNAYAAYYAPSVKGRFTISRDDSKNSIYLQMNSLKTEDTAVYYCHYVHYASASTVLPAFGVDAWGQGTTVTVSS
VL: DIVMTQSPLSLPVTPGEPASISCQASQELVHMNRNTYLHWYQQKPGQAPRLLIYKVSNRFPGVPDRFSGSGSGTDFTLKISRVEAEDVGVYYCAQGTSVPFTFGQGTKLEIK
B20: H183/L072 VH S30H (antibody, name in Kabat numbering, V domains shown)
VH: QVQLVESGGGLVQPGRSLRLSCAASGFTFHNAWMHWVRQAPGKGLEWVAQIKDKGNAYAAYYAPSVKGRFTISRDDSKNSIYLQMNSLKTEDTAVYYCHYVHYASASTVLPAFGVDAWGQGTTVTVSS
VL: DIVMTQSPLSLPVTPGEPASISCQASQELVHMNRNTYLHWYQQKPGQAPRLLIYKVSNRFPGVPDRFSGSGSGTDFTLKISRVEAEDVGVYYCAQGTSVPFTFGQGTKLEIK

Target: T1, Human CD137 ECD (human)
T1 construct: also called 4-1BB
Test: single mutant vs template dBBDu183H

T1 sequence (chain, as listed by the source limits assumed): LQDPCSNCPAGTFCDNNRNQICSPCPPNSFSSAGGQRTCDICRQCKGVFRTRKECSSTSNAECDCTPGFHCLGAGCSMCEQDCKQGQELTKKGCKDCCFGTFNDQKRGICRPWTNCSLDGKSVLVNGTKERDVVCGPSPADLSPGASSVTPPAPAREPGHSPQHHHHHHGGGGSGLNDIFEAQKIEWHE

Point of comparison: B1, “fold change of affinity” value 0.4 fold. Against it:
- B2 — higher, 0.9 fold
- B3 — higher, 0.9 fold
- B4 — higher, 0.7 fold
- B5 — higher, 0.7 fold
- B6 — higher, 0.7 fold
- B7 — higher, 0.5 fold
- B8 — higher, 0.5 fold
- B9 — higher, 0.6 fold
- B10 — higher, 0.7 fold
- B11 — higher, 0.8 fold
- B12 — higher, 0.6 fold
- B13 — higher, 0.7 fold
- B14 — higher, 0.5 fold
- B15 — higher, 0.9 fold
- B16 — higher, 0.9 fold
- B17 — higher, 0.8 fold
- B18 — higher, 0.6 fold
- B19 — higher, 0.7 fold
- B20 — higher, 0.6 fold
